The term stoichiometry N denotes the number of molecules, sites or subunits per partner or assembly.

To fix the notation:
B1: BubR1 pseudokinase domain (KinD, residues 705-1050) (domain or fragment, human, UniProt O60566 705-1050, looked up)
chain: EKLELTNETSENPTQSPWCSQYRRQLLKSLPELSASAELCIEDRPMPKLEIEKEIELGNEDYCIKREYLICEDYKLFWVAPRNSAELTVIKVSSQPVPWDFYINLKLKERLNEDFDHFCSCYQYQDGCIVWHQYINCFTLQDLLQHSEYITHEITVLIIYNLLTIVEMLHKAEIVHGDLSPRCLILRNRIHDPYDCNKNNQALKIVDFSYSVDLRVQLDVFTLSGFRTVQILEGQKILANCSSPYQVDLFGIADLAHLLLFKEHLQVFWDGSFWKLSQNISELKDGELWNKFFVRILNANDEATVSVLGELAAEMNGVFDTTFQSHLNKALWKVGKLTSPGALLFQ
B2: eGFP-CENP-E^2070-C (domain or fragment, Homo sapiens, UniProt Q02224 2070-2701, looked up)
chain: RQNHQVKPEKRLLSDGQQHLTESLREKCSRIKELLKRYSEMDDHYECLNRLSLDLEKEIEFQKELSMRVKANLSLPYLQTKHIEKLFTANQRCSMEFHRIMKKLKYVLSYVTKIKEEQHESINKFEMDFIDEVEKQKELLIKIQHLQQDCDVPSRELRDLKLNQNMDLHIEEILKDFSESEFPSIKTEFQQVLSNRKEMTQFLEEWLNTRFDIEKLKNGIQKENDRICQVNNFFNNRIIAIMNESTEFEERSATISKEWEQDLKSLKEKNEKLFKNYQTLKTSLASGAQVNPTTQDNKNPHVTSRATQLTTEKIRELENSLHEAKESAMHKESKIIKMQKELEVTNDIIAKLQAKVHESNKCLEKTKETIQVLQDKVALGAKPYKEEIEDLKMKLVKIDLEKMKNAKEFEKEISATKATVEYQKEVIRLLRENLRRSQQAQDTSVISEHTDPQPSNKPLTCGGGSGIVQNTKALILKSEHIRLEKEISKLKQQNEQLIKQKNELLSNNQHLSNEVKTWKERTLKREAHKQVTCENSPKSPKVTGTASKKKQITPSQCKERNLQDPVPKESPKSCFFDSRSKSLPSPHPVRYFDNSSLGLCPEVQNAGAESVDSQPGPWHASSGKDVPECKTQ

The target in test [1] is mCherry-CENP-F^2866-2990 (Homo sapiens) (UniProt P49454). Nature of the test: AUC.
Test [2] concerns the target mCherry-CENP-F^2922-2990 (Homo sapiens) (UniProt P49454). Nature of the test: AUC.
Test [3] concerns the target B2. Put plainly: SEC. A general note: Size exclusion chromatography separates by hydrodynamic size, large species first.
The target of test [4] is BubR1:Bub3 complex (human, UniProt O60566 1-1050; O43684 1-328). Nature of the test: SEC.
Chain of BubR1:Bub3 complex (O43684 whole entry, one chain of several): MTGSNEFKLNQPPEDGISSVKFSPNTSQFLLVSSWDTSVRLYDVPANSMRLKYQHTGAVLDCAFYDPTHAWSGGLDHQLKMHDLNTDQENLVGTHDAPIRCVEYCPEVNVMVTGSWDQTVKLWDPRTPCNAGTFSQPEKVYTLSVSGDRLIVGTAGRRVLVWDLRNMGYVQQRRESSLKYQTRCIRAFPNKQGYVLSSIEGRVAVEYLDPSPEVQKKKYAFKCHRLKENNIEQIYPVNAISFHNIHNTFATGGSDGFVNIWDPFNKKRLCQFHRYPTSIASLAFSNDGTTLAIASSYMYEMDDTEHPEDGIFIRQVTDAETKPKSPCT

“mCherry-CENP-F^2866-2990 (from UniProt P49454 2866-2990) (domain or fragment)”: the stoichiometry N in test [1] is 2.
On to “mCherry-CENP-F^2922-2990 (from UniProt P49454 2922-2990) (domain or fragment)”, for which the stoichiometry N in test [2] came to 2.
B1: the binding result in test [3] is listed as “binds”.
Turning to B2, the binding result in test [4] is “binds”.

Values taken from article doi:10.1101/276204 (bioRxiv, 2018).
